Test results reported in patent US20190016816A1 (APTEVO RESEARCH AND DEVELOPMENT, published 2019).

Columns and labels:
human 5T4 on cells [1] = target: T1, human 5T4 on cells (human, UniProt Q13641 32-420); test: flow cytometry, CHO-K1 cells expressing human 5T4, labelled anti-human IgG secondary, MFI (mean)
T1 construct: also called TPBG; hu5T4
T1 sequence: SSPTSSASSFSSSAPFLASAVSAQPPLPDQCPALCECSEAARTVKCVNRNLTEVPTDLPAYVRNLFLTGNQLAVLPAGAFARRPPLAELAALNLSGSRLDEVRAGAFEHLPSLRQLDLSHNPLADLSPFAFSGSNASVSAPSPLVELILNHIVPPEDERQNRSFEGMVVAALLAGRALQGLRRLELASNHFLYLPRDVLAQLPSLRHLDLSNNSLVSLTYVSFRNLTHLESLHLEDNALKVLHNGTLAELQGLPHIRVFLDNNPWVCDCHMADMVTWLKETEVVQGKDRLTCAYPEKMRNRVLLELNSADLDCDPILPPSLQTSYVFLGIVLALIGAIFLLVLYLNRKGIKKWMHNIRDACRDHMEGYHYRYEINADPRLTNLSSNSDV
Description: (§1) Binding studies were performed by standard flow cytometry-based staining procedures two cell lines expressing 5T4:CHO-K1 cells (obtained from Alligator) transduced with human or cynomolgus macaque 5T4 and SKOV-3 human ovarian adenocarcinoma cells which express (human) 5T4. All labeling and washes were performed in U-bottom 96-well plates in saline buffer with 0.1% BSA and 2 mM EDTA. Cell were plated at approximately 100,000 cells per well and incubated with a range of 100 nM to 0.05 nM concentrations of test molecules in […], for 30 minutes on ice. Cells were washed three times then incubated for another 30 min on ice with fluorescently-labeled secondary polyclonal antibody, F(ab′)² goat anti-human IgG (Jackson ImmunoResearch Laboratories). The cells were then washed twice and the samples acquired in a BD LSRII or a Symphony A3 flow cytometer. The sample files were analyzed using FlowJo software; the mean fluorescence intensity (MFI-mean) or median fluorescence intensity (MFI-median) of the live population of cells in each well was calculated after gating on live cells (forward vs side scatter). Nonlinear regression analysis to determine EC₅₀ values was performed in GraphPad Prism 6® graphing and statistics software.

[2] = target: T2, cynomolgus CD137 on cells (cynomolgus macaque, UniProt A9YYE7 24-254); test: flow cytometry, CHO-K1 cells expressing cynomolgus CD137, PE anti-human IgG Fc secondary, MFI (median)
T2 construct: whole, on cells; also called CHO-K1/cynomolgus CD137 cell line; cynomolgus monkey CD137 on CD3-stimulated primary CD8 T cells
T2 sequence (A9YYE7 entry or part of it): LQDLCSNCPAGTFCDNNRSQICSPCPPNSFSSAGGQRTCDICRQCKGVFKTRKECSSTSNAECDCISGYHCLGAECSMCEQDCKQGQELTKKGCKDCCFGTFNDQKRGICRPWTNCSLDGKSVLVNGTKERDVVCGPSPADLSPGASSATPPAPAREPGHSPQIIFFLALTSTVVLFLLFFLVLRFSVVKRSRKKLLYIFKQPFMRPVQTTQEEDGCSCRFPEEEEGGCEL
Description: (§2) Binding studies on CHO-K1 cells lines expressing CD137 were performed by standard flow cytometry-based staining procedures. CHO-K1 cells (generated by Alligator) were transfected with human or cynomolgus macaque CD137. A typical experiment would label approximately 100,000 cells per well, in 96-well plates, with a range of 100 nM to 0.05 nM binding molecule in 50 μL of saline buffer with 2% BSA and 2 mM EDTA, for 30 min on ice, followed by washes and incubation with PE-labeled secondary antibody, goat anti-human IgG Fcγ ([…]), for 20 minutes on ice. Signal from bound molecules was detected using a LSR-II™ or a Symphony A3 flow cytometer (BD Biosciences) and analyzed by FlowJo flow cytometry analysis software. Median fluorescence intensity (MFI-median) of bound molecules on live cells was determined after exclusion of doublets cells. Nonlinear regression analysis to determine EC₅₀ values was performed in GraphPad Prism 6® graphing and statistics software.

cynomolgus 5T4 on cells = target: T3, cynomolgus 5T4 on cells (cynomolgus macaque, UniProt Q4R8Y9 35-420); test: flow cytometry, CHO-K1 cells expressing cynomolgus 5T4, labelled anti-human IgG secondary, MFI (median)
T3 construct: whole, on cells; also called CHO-K1/cynomolgus 5T4 transfectants
T3 sequence (looked up): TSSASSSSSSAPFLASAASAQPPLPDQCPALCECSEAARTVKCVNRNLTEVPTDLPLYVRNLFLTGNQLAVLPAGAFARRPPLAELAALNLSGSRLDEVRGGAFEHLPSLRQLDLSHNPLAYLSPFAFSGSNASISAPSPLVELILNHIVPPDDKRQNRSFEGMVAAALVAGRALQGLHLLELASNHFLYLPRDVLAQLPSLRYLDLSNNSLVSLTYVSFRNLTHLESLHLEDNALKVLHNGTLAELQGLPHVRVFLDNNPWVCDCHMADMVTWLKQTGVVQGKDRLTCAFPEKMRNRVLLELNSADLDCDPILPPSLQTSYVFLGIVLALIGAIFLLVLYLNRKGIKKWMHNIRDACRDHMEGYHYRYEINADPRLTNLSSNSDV
Description: as §1

human CD137 on cells [3] = target: T4, human CD137 on cells (human, UniProt Q07011 24-255); test: cell-based or functional assay
T4 sequence (Q07011 24-255 limits assumed): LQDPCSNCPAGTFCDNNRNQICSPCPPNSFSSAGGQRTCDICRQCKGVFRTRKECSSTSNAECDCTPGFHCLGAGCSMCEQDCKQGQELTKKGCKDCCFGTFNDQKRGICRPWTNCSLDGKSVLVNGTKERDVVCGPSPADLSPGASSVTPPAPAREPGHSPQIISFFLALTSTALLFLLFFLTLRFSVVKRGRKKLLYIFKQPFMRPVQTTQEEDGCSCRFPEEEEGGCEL

human CD137 on cells [4] = target: T4, human CD137 on cells; test: flow cytometry, CHO-K1 cells expressing human CD137, PE anti-human IgG Fc secondary, MFI (median)
Description: as §2

human 5T4 on cells [5] = target: T1, human 5T4 on cells; test: flow cytometry, SKOV-3 cells (endogenous human 5T4), labelled anti-human IgG secondary, MFI (mean)
Description: as §1

Binder | EC50 (human 5T4 on cells [1]) | Maximum MFI (human 5T4 on cells [1]) | EC50 [2] | EC50 (cynomolgus 5T4 on cells) | Maximum MFI (cynomolgus 5T4 on cells) | CD137 reporter assay with HCC1143 cells, EC50 against ALG.APV-006 and ALG.APV-004 (human CD137 on cells [3]) | EC50 (human CD137 on cells [4]) | EC50 (human 5T4 on cells [5]) | Maximum MFI (human 5T4 on cells [5])
ALG.APV-191 (bispecific antibody, Optimized ADAPTIR scFv-Fc-scFv homodimer) EVQLLESGGGLVQPGGSLRLSCAASGFTFDYGSMYWVRQAPGKGLEWVSSISSGSGSTYYADSVKGRFTISHDNSKNTLYLQMNSLRAEDTAVYYCARSSYYGSYYSIDYWGQGTLVTVSSGGGGSGGGGSGGGGSGGGGSDIQMTQSPSSLSASVGDRVTITCRASQSISSYLNWYQQKPGKAPKLLIYAASSLHSGVPSRFSGSGSGTDFTLTISSLQPEDFATYYCQQYYDNLPTFGQGTKLEIKSSEPKSSDKTHTCPPCPAPEAAGAPSVFLFPPKPKDTLMISRTPEVTCVVVDVSHEDPEVKFNWYVDGVEVHNAKTKPREEQYNSTYRVVSVLTVLHQDWLNGKEYKCAVSNKALPAPIEKTISKAKGQPREPQVYTLPPSRDELTKNQVSLTCLVKGFYPSDIAVEWESNGQPENNYKTTPPVLDSDGSFFLYSKLTVDKSRWQQGNVFSCSVMHEALHNHYTQKSLSLSPGSGGGGSGGGGSGGGGSPSEVQLLESGGGLVQPGGSLRLSCAASGFTFSSYAMSWVRQAPGKCLEWVSAISGSGGSTYYADSVKGRFTISRDNSKNTLYLQMNSLRAEDTAVYYCARYYGGYYSAWMDYWGQGTLVTVSSGGGGSGGGGSGGGGSGGGGSDIQMTQSPSSLSASVGDRVTITCRASQSISSFLNWYQQKPGKAPKLLIYAASSLQSGVPSRFSGSGSGTDFTLTISSLQPEDFATYYCQQTYGYLHTFGCGTKLEIKS | 10.9 nM | 14100 | 1.7 nM | 22 nM | 25100 | ≤ 6 fold lower EC50 | 1.1 nM | – | –
ALG.APV-198 (bispecific antibody, Optimized ADAPTIR scFv-Fc-scFv homodimer) EVQLLESGGGLVQPGGSLRLSCAASGFTFSHGSMYWVRQAPGKGLEWVSSISSGSGSTYYADSVKGRFTISHDNSKNTLYLQMNSLRAEDTAVYYCARSSYYGSYYSIDYWGQGTLVTVSSGGGGSGGGGSGGGGSGGGGSDIQMTQSPSSLSASVGDRVTITCRASQSISSYLNWYQQKPGKAPKLLIYAASSLQSGVPSRFSGSGSGTDFTLTISSLQPEDFATYYCQQYYDNLPTFGQGTKLEIKSSEPKSSDKTHTCPPCPAPEAAGAPSVFLFPPKPKDTLMISRTPEVTCVVVDVSHEDPEVKFNWYVDGVEVHNAKTKPREEQYNSTYRVVSVLTVLHQDWLNGKEYKCAVSNKALPAPIEKTISKAKGQPREPQVYTLPPSRDELTKNQVSLTCLVKGFYPSDIAVEWESNGQPENNYKTTPPVLDSDGSFFLYSKLTVDKSRWQQGNVFSCSVMHEALHNHYTQKSLSLSPGSGGGGSGGGGSGGGGSPSEVQLLESGGGLVQPGGSLRLSCAASGFDFESYAMSWVRQAPGKCLEWVSAISGSGGSTYYADSVKGRFTISRDNSKNTLYLQMNSLRAEDTAVYYCARYYGGYYSAWMDYWGQGTLVTVSSGGGGSGGGGSGGGGSGGGGSDIQMTQSPSSLSASVGDRVTITCRASQSIRSALNWYQQKPGKAPKLLIYAASSLQSGVPSRFSGSGSGTDFTLTISSLQPEDFATYYCQQTYGYLHTFGCGTKLEIKR | 3.1 nM | 13200 | 1.8 nM | 7 nM | 20600 | ≤ 6 fold lower EC50 | 1 nM | 1.8 nM | 1070
ALG.APV-196 (bispecific antibody, Optimized ADAPTIR scFv-Fc-scFv homodimer) EVQLLESGGGLVQPGGSLRLSCAASGFTFSYGSMYWVRQAPGKGLEWVSSISSGSGSTYYADSVKGRFTISHDNSKNTLYLQMNSLRAEDTAVYYCARSSYYGSYYSIDYWGQGTLVTVSSGGGGSGGGGSGGGGSGGGGSDIQMTQSPSSLSASVGDRVTITCRASQSISSYLNWYQQKPGKAPKLLIYAASSLQSGVPSRFSGSGSGTDFTLTISSLQPEDFATYYCQQYYDNLPTFGQGTKLEIKSSEPKSSDKTHTCPPCPAPEAAGAPSVFLFPPKPKDTLMISRTPEVTCVVVDVSHEDPEVKFNWYVDGVEVHNAKTKPREEQYNSTYRVVSVLTVLHQDWLNGKEYKCAVSNKALPAPIEKTISKAKGQPREPQVYTLPPSRDELTKNQVSLTCLVKGFYPSDIAVEWESNGQPENNYKTTPPVLDSDGSFFLYSKLTVDKSRWQQGNVFSCSVMHEALHNHYTQKSLSLSPGSGGGGSGGGGSGGGGSPSEVQLLESGGGLVQPGGSLRLSCAASGFDFESYAMSWVRQAPGKCLEWVSAISGSGGSTYYADSVKGRFTISRDNSKNTLYLQMNSLRAEDTAVYYCARYYGGYYSAWMDYWGQGTLVTVSSGGGGSGGGGSGGGGSGGGGSDIQMTQSPSSLSASVGDRVTITCRASQSIRSALNWYQQKPGKAPKLLIYAASSLQSGVPSRFSGSGSGTDFTLTISSLQPEDFATYYCQQTYGYLHTFGCGTKLEIKR | 3.4 nM | 13500 | 1.8 nM | 7 nM | 21100 | ≤ 6 fold lower EC50 | 0.9 nM | 1.7 nM | 1130
